Assays:
[1] = substrate: C[C@@H](O)[C@H]1C(=O)N2C(C(=O)O)=C(S[C@@H]3CN[C@H](C(=O)N(C)C)C3)[C@H](C)[C@H]12; assay: (§1) Activity of Klebsiella pneumoniae SHV-1
[2] = substrate: CC1(C)S[C@@H]2[C@H](NC(=O)Cc3ccccc3)C(=O)N2[C@H]1C(=O)O; assay: as §1
[3] = substrate: C[C@@H](O)[C@H]1C(=O)N2C(C(=O)O)=C(S[C@@H]3CN[C@H](CNS(N)(=O)=O)C3)[C@H](C)[C@H]12; assay: as §1
[4] = substrate: C[C@@H](O)[C@H]1C(=O)N2C(C(=O)O)=C(SCCNC=N)C[C@H]12; assay: as §1
[5] = substrate: O=C(Cc1cccs1)N[C@@H]1C(=O)N2C(C(=O)[O-])=C(C[n+]3ccccc3)CS[C@H]12; assay: as §1
[6] = substrate: C[C@@H](O)[C@H]1C(=O)N2C(C(=O)O)=C(S[C@@H]3CN[C@H](C(=O)N(C)C)C3)[C@H](C)[C@H]12; assay: (§2) Kcat/Km ratio of Klebsiella pneumoniae SHV-1
[7] = substrate: CC1(C)S[C@@H]2[C@H](NC(=O)Cc3ccccc3)C(=O)N2[C@H]1C(=O)O; assay: as §2
[8] = substrate: C[C@@H](O)[C@H]1C(=O)N2C(C(=O)O)=C(S[C@@H]3CN[C@H](CNS(N)(=O)=O)C3)[C@H](C)[C@H]12; assay: as §2
[9] = substrate: C[C@@H](O)[C@H]1C(=O)N2C(C(=O)O)=C(SCCNC=N)C[C@H]12; assay: as §2
[10] = substrate: O=C(Cc1cccs1)N[C@@H]1C(=O)N2C(C(=O)[O-])=C(C[n+]3ccccc3)CS[C@H]12; assay: as §2
[11] = substrate: C[C@@H](O)[C@H]1C(=O)N2C(C(=O)O)=C(S[C@@H]3CN[C@H](C(=O)N(C)C)C3)[C@H](C)[C@H]12; assay: (§3) Activity of Pseudomonas aeruginosa IMP-1
[12] = substrate: CC1(C)S[C@@H]2[C@H](NC(=O)Cc3ccccc3)C(=O)N2[C@H]1C(=O)O; assay: as §3
[13] = substrate: CC(C)(O/N=C(\C(=O)N[C@@H]1C(=O)N2C(C(=O)[O-])=C(C[n+]3ccccc3)CS[C@H]12)c1csc(N)n1)C(=O)O; assay: as §3
[14] = substrate: C[C@@H](O)[C@H]1C(=O)N2C(C(=O)O)=C(S[C@@H]3CN[C@H](CNS(N)(=O)=O)C3)[C@H](C)[C@H]12; assay: as §3
[15] = substrate: C[C@@H](O)[C@H]1C(=O)N2C(C(=O)O)=C(SCCNC=N)C[C@H]12; assay: as §3
[16] = substrate: O=C(Cc1cccs1)N[C@@H]1C(=O)N2C(C(=O)[O-])=C(C[n+]3ccccc3)CS[C@H]12; assay: as §3
[17] = substrate: C[C@@H](O)[C@H]1C(=O)N2C(C(=O)O)=C(S[C@@H]3CN[C@H](C(=O)N(C)C)C3)[C@H](C)[C@H]12; assay: (§4) Kcat/Km ratio of Pseudomonas aeruginosa IMP-1
[18] = substrate: CC1(C)S[C@@H]2[C@H](NC(=O)Cc3ccccc3)C(=O)N2[C@H]1C(=O)O; assay: as §4
[19] = substrate: CC(C)(O/N=C(\C(=O)N[C@@H]1C(=O)N2C(C(=O)[O-])=C(C[n+]3ccccc3)CS[C@H]12)c1csc(N)n1)C(=O)O; assay: as §4
[20] = substrate: C[C@@H](O)[C@H]1C(=O)N2C(C(=O)O)=C(S[C@@H]3CN[C@H](CNS(N)(=O)=O)C3)[C@H](C)[C@H]12; assay: as §4
[21] = substrate: C[C@@H](O)[C@H]1C(=O)N2C(C(=O)O)=C(SCCNC=N)C[C@H]12; assay: as §4
[22] = substrate: O=C(Cc1cccs1)N[C@@H]1C(=O)N2C(C(=O)[O-])=C(C[n+]3ccccc3)CS[C@H]12; assay: as §4
[23] = substrate: C[C@@H](O)[C@H]1C(=O)N2C(C(=O)O)=C(S[C@@H]3CN[C@H](C(=O)N(C)C)C3)[C@H](C)[C@H]12; assay: (§5) Activity of Serratia marcescens SME-3
[24] = substrate: C[C@@H](O)[C@H]1C(=O)N2C(C(=O)O)=C(S[C@@H]3CN[C@H](CNS(N)(=O)=O)C3)[C@H](C)[C@H]12; assay: as §5
[25] = substrate: C[C@@H](O)[C@H]1C(=O)N2C(C(=O)O)=C(SCCNC=N)C[C@H]12; assay: as §5
[26] = substrate: C[C@@H](O)[C@H]1C(=O)N2C(C(=O)O)=C(S[C@@H]3CN[C@H](C(=O)N(C)C)C3)[C@H](C)[C@H]12; assay: (§6) Kcat/Km ratio of Serratia marcescens SME-3
[27] = substrate: C[C@@H](O)[C@H]1C(=O)N2C(C(=O)O)=C(S[C@@H]3CN[C@H](CNS(N)(=O)=O)C3)[C@H](C)[C@H]12; assay: as §6
[28] = substrate: C[C@@H](O)[C@H]1C(=O)N2C(C(=O)O)=C(SCCNC=N)C[C@H]12; assay: as §6
[29] = substrate: C[C@@H](O)[C@H]1C(=O)N2C(C(=O)O)=C(S[C@@H]3CN[C@H](C(=O)N(C)C)C3)[C@H](C)[C@H]12; assay: (§7) Kcat/Km ratio of Enterobacter cloacae AmpC
[30] = substrate: C[C@@H](O)[C@H]1C(=O)N2C(C(=O)O)=C(S[C@@H]3CN[C@H](CNS(N)(=O)=O)C3)[C@H](C)[C@H]12; assay: as §7
[31] = substrate: C[C@@H](O)[C@H]1C(=O)N2C(C(=O)O)=C(SCCNC=N)C[C@H]12; assay: as §7
[32] = substrate: C[C@@H](O)[C@H]1C(=O)N2C(C(=O)O)=C(S[C@@H]3CN[C@H](C(=O)N(C)C)C3)[C@H](C)[C@H]12; assay: (§8) Activity of Enterobacter cloacae AmpC
[33] = substrate: C[C@@H](O)[C@H]1C(=O)N2C(C(=O)O)=C(S[C@@H]3CN[C@H](CNS(N)(=O)=O)C3)[C@H](C)[C@H]12; assay: as §8
[34] = substrate: C[C@@H](O)[C@H]1C(=O)N2C(C(=O)O)=C(SCCNC=N)C[C@H]12; assay: as §8

B1: Beta-lactamase SHV-1 (Klebsiella pneumoniae), P0AD64 (protein)
chain: MRYIRLCIISLLATLPLAVHASPQPLEQIKLSESQLSGRVGMIEMDLASGRTLTAWRADERFPMMSTFKVVLCGAVLARVDAGDEQLERKIHYRQQDLVDYSPVSEKHLADGMTVGELCAAAITMSDNSAANLLLATVGGPAGLTAFLRQIGDNVTRLDRWETELNEALPGDARDTTTPASMAATLRKLLTSQRLSARSQRQLLQWMVDDRVAGPLIRSVLPAGWFIADKTGAGERGARGIVALLGPNNKAERIVVIYLRDTPASMAERNQQIAGIGAALIEHWQR
In the case of B1, the Km [1] is reported as 4.2 µM, the kcat [1] is reported as 0.0017 s⁻¹ and the kcat [2] is reported as 1100 s⁻¹. The Km [3] was 4.3 µM, the kcat [3] was 0.003 s⁻¹ and the Km [4] was 23 µM. The kcat [4] was 0.054 s⁻¹, the kcat [5] was 410 s⁻¹ and the kcat/Km [6] was 400 M⁻¹ s⁻¹. The kcat/Km [7] was 6.9e+07 M⁻¹ s⁻¹, the kcat/Km [8] was 700 M⁻¹ s⁻¹ and the kcat/Km [9] was 2400 M⁻¹ s⁻¹. For the same protein, the kcat/Km [10] was 2.6e+06 M⁻¹ s⁻¹.

B2: Beta-lactamase IMP-1 (Pseudomonas aeruginosa), Q8G9Q0 (protein)
chain: MNSPKSRALLGFMGAFCLLLVAGAPLSAKSSDHVDLPYNLTATKIDSDVFVVTDRDFYSSNVLVAKMLDGTVVIVSSPFENLGTQTLMDWVAKTMKPKKVVAINTHFHLDGTGGNEIYKKMGAETWSSDLTKQLRLEENKKDRIKAAEFYKNEDLKRRILSSHPVPADNVFDLKQGKVFSFSNELVEVSFPGPAHSPDNVVVYFPKKKLLFGGCMIKPKELGYLGDANVKAWPDSARRLKKFDAKIVIPGHGEWGGPEMVNKTIKVAEKAVGEMRL
B2 was tested, and the Km [11] was 6.5 µM, the kcat [11] was 26 s⁻¹ and the Km [12] was 550 µM. For the same protein, the kcat [12] was 1400 s⁻¹, the Km [13] was 50 µM and the kcat [13] was 37 s⁻¹. It also gave a Km [14] of 30 µM, a kcat [14] of 110 s⁻¹ and a Km [15] of 33 µM. For the same protein, the kcat [15] was 190 s⁻¹, the Km [16] was 21 µM and the kcat [16] was 270 s⁻¹. The kcat/Km [17] was 4e+06 M⁻¹ s⁻¹, the kcat/Km [18] was 2.5e+06 M⁻¹ s⁻¹ and the kcat/Km [19] was 740000 M⁻¹ s⁻¹. It also gave a kcat/Km [20] of 3.7e+06 M⁻¹ s⁻¹, a kcat/Km [21] of 5.8e+06 M⁻¹ s⁻¹ and a kcat/Km [22] of 1.3e+07 M⁻¹ s⁻¹.

B3: Carbapenem-hydrolyzing beta-lactamase SME-3 (Serratia marcescens), Q6PRG8 (protein)
chain: MSNKVNFKTASFLFSVCLALSAFNAHANKSDAAAKQIKKLEEDFDGRIGVFAIDTGSGNTFGYRSDERFPLCSSFKGFLAAAVLERVQQKKLDINQKVKYESRDLEYYSPITTKYKGSGMTLGDMASAALQYSDNGATNIIMERFLGGPEGMTKFMRSIGDNEFRLDRWELELNTAIPGDKRDTSTPKAVANSLNKLALGNVLNAKVKAIYQNWLKGNTTGDARIRASVPADWVVGDKTGSCGAYGTANDYAVIWPKNRAPLIVSIYTTRKSKDDKHSDKTIAEASRIAIQAID
B3 gave a Km [23] of 5.8 µM, a kcat [23] of 3.2 s⁻¹ and a Km [24] of 8.2 µM. For the same protein, the kcat [24] was 2.5 s⁻¹, the Km [25] was 150 µM and the kcat [25] was 370 s⁻¹. It also gave a kcat/Km [26] of 550000 M⁻¹ s⁻¹, a kcat/Km [27] of 300000 M⁻¹ s⁻¹ and a kcat/Km [28] of 2.5e+06 M⁻¹ s⁻¹.

B4: Beta-lactamase (Enterobacter cloacae), P05364 (protein)
chain: MMRKSLCCALLLGISCSALATPVSEKQLAEVVANTITPLMKAQSVPGMAVAVIYQGKPHYYTFGKADIAANKPVTPQTLFELGSISKTFTGVLGGDAIARGEISLDDAVTRYWPQLTGKQWQGIRMLDLATYTAGGLPLQVPDEVTDNASLLRFYQNWQPQWKPGTTRLYANASIGLFGALAVKPSGMPYEQAMTTRVLKPLKLDHTWINVPKAEEAHYAWGYRDGKAVRVSPGMLDAQAYGVKTNVQDMANWVMANMAPENVADASLKQGIALAQSRYWRIGSMYQGLGWEMLNWPVEANTVVEGSDSKVALAPLPVAEVNPPAPPVKASWVHKTGSTGGFGSYVAFIPEKQIGIVMLANTSYPNPARVEAAYHILEALQ
B4 showed a kcat/Km [29] of 32 M⁻¹ s⁻¹, a kcat/Km [30] of 45 M⁻¹ s⁻¹ and a kcat/Km [31] of 500 M⁻¹ s⁻¹. The Km [32] was 9.8 µM, the kcat [32] was 0.00031 s⁻¹ and the Km [33] was 9.6 µM. The kcat [33] was 0.00043 s⁻¹, the Km [34] was 24 µM and the kcat [34] was 0.012 s⁻¹.
